In US20220324959A1 (Janssen / Centocor, published 2022):

How the values were obtained:
recombinant human TNFα [1] = target: T1, recombinant human TNFα (human, UniProt P01375 77-233, 125I label in the receptor blocking assay); experiment: cell-based or functional assay
recombinant human TNFα [2] = target: T1, recombinant human TNFα; experiment: inhibition of 125I-TNFα binding to plate-coated p55-sf2, hybridoma supernatant
Description: (§1) 50:1 of p55-sf2 at 0.5:g/ml in PBS was added to Optiplates to coat the wells during a one-hour incubation at 37° C. Serial dilutions of the eight TNV cell supernatants were prepared in 96-well round-bottom plates using PBS/0.1% BSA as diluent. […] The mixture was preincubated for one hour at RT. The coated Optiplates were washed to remove unbound p55-sf2 and 50:1 of the ¹²⁵I-TNFα/cell supernatant mixture was transferred to the Optiplates. After 2 hrs at RT, Optiplates were washed three times with PBS-Tween. […] of Microscint-20 was added and the cpm bound determined using the TopCount gamma counter.
A simple binding assay was done to determine whether the eight TNV mAbs contained in hybridoma cell supernatant were capable of blocking TNFα binding to receptor. The concentrations of the TNV mAbs in their respective cell supernatants were first determined by standard ELISA analysis for human IgG.

recombinant human TNFα [3] = target: T1, recombinant human TNFα; experiment: competition radioligand assay: mAb in hybridoma supernatant preincubated with 5 ng/ml 125I-TNFα, then binding of 125I-TNFα to plate-coated p55-sf2 (TNF receptor/IgG fusion) counted as cpm bound
Description: Varying amounts of hybridoma cell supernatants containing known amounts of TNV mAb were preincubated with a fixed concentration (5 ng/ml) of ¹²⁵I-labeled TNFα. […] The amount of TNFα that bound to the p55 receptor in the presence of the mAbs was determined after washing away the unbound material and counting using a gamma counter. Although eight TNV mAb samples were tested in these experiments, for simplicity three of the mAbs that were shown by DNA sequence analyses to be identical to one of the other TNV mAbs (see Section 5.2.2) are not shown here. Each sample was tested in duplicate. The results shown are representative of two independent experiments.
as §1

Binder	neutralizing TNFα bioactivity (recombinant human TNFα [1]) [fold]	fold better at blocking TNF binding (against TNV118 and TNV14) (recombinant human TNFα [2]) [fold]	IC50 (read off the curve) (recombinant human TNFα [3]) [ng/mL]
TNV148 (antibody, human IgG1, kappa, V domains shown, Hybridoma-derived fully human IgG1 kappa, tested as hybridoma supernatant; also called GenTNV148.26.12; C420A) VH: QVQLVESGGGVVQPGRSLRLSCAASGFIFSSYAMHWVRQAPGNGLEWVAFMSYDGSNKKYADSVKGRFTISRDNPKNTLYLQMNSLRAEDTAVYYCARDRGIAAGGNYYYYGMDVWGQGTTVTVSS VL: EIVLTQSPATLSLSPGERATLSCRASQSVYSYLAWYQQKPGQAPRLLIYDASNRATGIPARFSGSGSGTDFTLTISSLEPEDFAVYYCQQRSNWPPFTFGPGTKVDIKR	4	~4	~4
TNV86 (antibody, human IgG1, kappa, V domains shown, Hybridoma-derived fully human IgG1 kappa, tested as hybridoma supernatant; Identity is stated for the variable regions only; also called GenTNV86.14.34; C417A) VH: QVQLVESGGGVVQPGRSLRLSCAASGFIFSSYAMHWVRQAPGNGLEWVAFMSYDGSNKKYADSVKGRFTISRDNPKNTLYLQMNSLRAEDTAVYYCARDRGIAAGGNYYYYGMDVWGQGTTVTVSS VL: EIVLTQSPATLSLSPGERATLSCRASQSVYSYLAWYQQKPGQAPRLLIYDASNRATGIPARFSGSGSGTDFTLTISSLEPEDFAVYYCQQRSNWPPFTFGPGTKVDIKR	–	~4	–
